Earlier results in publication PMC11182772.

Target: Scc1-SA2 (Homo sapiens) (UniProt O60216)
Sequence (O60216 whole entry, chain 1 of 2): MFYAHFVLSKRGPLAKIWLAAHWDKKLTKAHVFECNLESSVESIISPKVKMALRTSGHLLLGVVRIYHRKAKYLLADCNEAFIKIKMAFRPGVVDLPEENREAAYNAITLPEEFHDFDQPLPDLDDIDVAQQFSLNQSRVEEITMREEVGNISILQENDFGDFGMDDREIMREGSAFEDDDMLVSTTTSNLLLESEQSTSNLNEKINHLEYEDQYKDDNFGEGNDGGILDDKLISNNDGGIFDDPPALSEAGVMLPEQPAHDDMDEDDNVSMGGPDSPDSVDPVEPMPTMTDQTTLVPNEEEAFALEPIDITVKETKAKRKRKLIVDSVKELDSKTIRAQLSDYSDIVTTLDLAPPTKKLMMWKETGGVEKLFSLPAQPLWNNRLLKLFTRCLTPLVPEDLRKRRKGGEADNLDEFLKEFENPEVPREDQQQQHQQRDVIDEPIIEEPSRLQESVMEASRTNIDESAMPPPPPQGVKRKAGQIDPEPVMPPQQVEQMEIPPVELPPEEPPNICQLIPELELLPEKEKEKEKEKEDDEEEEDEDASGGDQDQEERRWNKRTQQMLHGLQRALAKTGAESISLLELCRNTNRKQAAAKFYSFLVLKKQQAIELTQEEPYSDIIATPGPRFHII
Sequence (Q8N3U4 whole entry, chain 2 of 2, further chain): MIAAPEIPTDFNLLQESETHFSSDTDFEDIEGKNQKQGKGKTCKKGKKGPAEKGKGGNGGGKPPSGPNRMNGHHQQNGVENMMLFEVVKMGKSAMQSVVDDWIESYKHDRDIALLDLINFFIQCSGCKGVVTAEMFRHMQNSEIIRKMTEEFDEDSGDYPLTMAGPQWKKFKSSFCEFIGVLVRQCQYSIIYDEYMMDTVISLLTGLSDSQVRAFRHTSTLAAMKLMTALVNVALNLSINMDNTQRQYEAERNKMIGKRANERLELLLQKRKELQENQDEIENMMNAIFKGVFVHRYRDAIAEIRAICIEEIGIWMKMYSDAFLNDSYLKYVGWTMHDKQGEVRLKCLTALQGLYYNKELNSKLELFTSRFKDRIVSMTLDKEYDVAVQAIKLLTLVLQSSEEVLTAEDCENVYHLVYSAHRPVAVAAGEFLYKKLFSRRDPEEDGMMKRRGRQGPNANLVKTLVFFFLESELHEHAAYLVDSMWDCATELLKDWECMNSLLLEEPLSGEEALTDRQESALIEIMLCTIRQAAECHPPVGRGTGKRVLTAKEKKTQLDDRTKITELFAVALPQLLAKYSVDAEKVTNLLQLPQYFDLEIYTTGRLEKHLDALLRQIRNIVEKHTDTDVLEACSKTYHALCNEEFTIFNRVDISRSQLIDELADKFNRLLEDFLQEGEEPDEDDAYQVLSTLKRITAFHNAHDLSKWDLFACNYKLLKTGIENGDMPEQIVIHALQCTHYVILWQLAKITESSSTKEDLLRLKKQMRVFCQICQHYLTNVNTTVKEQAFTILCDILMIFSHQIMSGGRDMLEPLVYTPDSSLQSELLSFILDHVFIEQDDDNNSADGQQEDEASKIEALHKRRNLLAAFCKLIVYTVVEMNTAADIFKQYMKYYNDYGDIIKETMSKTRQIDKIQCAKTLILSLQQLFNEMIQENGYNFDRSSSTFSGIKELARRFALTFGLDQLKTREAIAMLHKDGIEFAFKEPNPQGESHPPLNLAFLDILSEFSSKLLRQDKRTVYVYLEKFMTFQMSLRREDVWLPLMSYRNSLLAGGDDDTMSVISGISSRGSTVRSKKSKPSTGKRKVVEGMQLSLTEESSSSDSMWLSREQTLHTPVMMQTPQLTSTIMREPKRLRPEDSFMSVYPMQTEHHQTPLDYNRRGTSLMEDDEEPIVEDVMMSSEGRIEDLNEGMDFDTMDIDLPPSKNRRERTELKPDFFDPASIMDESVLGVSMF

Substance: CENP-U DVFDF motif peptide (from UniProt Q71F23)
- Kd: 4 µM
